Assay results taken from patent US5705143A, “Biological targeting agents” (Amersham International PLC, priority 1994, dated 1998).
“Also recorded” adds a separate entry of the source. Bridge positions count the residues as written; N and C are the ends. Square brackets hold non-standard residues; d marks the D form. Peptide text beside a SMILES is read from it. * marks the point of attachment. Phe(ol) = N[C@H](CO)Cc1ccccc1; NHCH(CH2OH)2 = OCC(CO)N*

Tests used:
growth hormone = settings: relative to somatostatin = 100%; cited from earlier work
receptor = settings: Babich et al; in words; cited from earlier work
somatostatin receptors = test: Biodistribution in rats: uptake/retention in adrenals and pancreas (somatostatin receptor-enriched tissues); type: in vivo, Male Wistar rats; settings: rat, i.v.; for Adrenal % Injected dose / Adrenal Relative concentration / Pancreas % Injected dose / Pancreas Relative concentration: carrier free (CF)
Protocol: In the present invention the peptides studied were radiolabelled with either ^123 I or ^99m Tc and their biodistributions studied in rats with organs of particular interest being the adrenals and pancreas. This is because somatostatin receptors have been shown in vitro to be enriched in a number of tissues including adrenals^(11,12), pancreas^(13,14), pituitary^(11,14) and brain^(15). […] Brain somatostatin receptors are not visualised when the compound is administered in vivo. In this study measurement of pituitary uptake was not sufficiently sensitive to distinguish specific and non-specific effects.
Carrier Effect on ^123 I--Compounds 1 and 6
For ^123 I--Compounds 1 and 6 the effect of carrier peptide on the biodistribution of the carrier-free ^123 I peptide was assessed by preparing 2 ml of a phosphate buffered solution of HPLC-purified carrier-free iodinated peptide as described above but then subdispensing 1 ml of this solution into a second vial containing carrier peptide.
A similar `carrier-effect` is anticipated for technetium labelled peptides, therefore the only valid comparison of biodistribution data for ^99m Tc and ^123 I labelled peptides is when both are carrier-added (CA).
(§1) Male Wistar rats were injected intravenously, under light anaesthesia with the test agent. At 2 minutes, 1 hour and 4 hours post-injection animals were sacrificed by cervical dislocation and various organs and tissue samples were removed for assay of radioactive content. The percentage injected dose in all dissected organs was calculated. In addition the % dose/gram tissue and the relative concentration of activity was calculated for selected organs. Relative concentration is the proportion of total activity in the organ divided by the proportion of bodyweight comprised by the organ. Thus, if a compound is uniformly disseminated throughout the body according to tissue weight then a given organ will have a relative concentration=1. A relative concentration>1 implies sequestration and/or retention of the compound and is a useful index where the absolute uptake (% injected dose per organ) is low.
(§2) Organs in which the test agent were looked for included the adrenals and the pancreas, where somatostatin receptors are known to be enriched (vide supra).

[1] = Biodistribution in rats: blood, kidney/bladder/urine, liver, gut, thyroid; type: in vivo, Male Wistar rats; settings: rat, i.v., carrier free (CF)
Protocol: as §1, §2

[2] = Metabolic stability in rat kidney homogenate; type: in vitro ADME; settings: 37° C., approx. 1 and 3 hours, HPLC; FIG. 1; in words
Protocol: Rat brain and kidney homogenates were produced by homogenising brain (1.71 g) and kidneys (2.41 g) in 10 vols phosphate buffered saline and centrifuging at 2000 rpm for 5 minutes.
Compound 4 (50 μg) was radiolabelled by stannous reduction of ^99m TcO4^- (0.2 GBq) at pH 9.0.
^99m Tc-Compound 4 solution (200 μl) was mixed with phosphate buffered saline (800 μl, control) rat kidney homogenate (800 μl) and rat brain homogenate (800 μl) and incubated at 37° C. HPLC analyses using the system described in Example 13 for ^99m Tc labelled peptides were performed on each sample at approx. 1 and 3 hours post-mixing.

carboxypeptidases = settings: in words; cited from earlier work
[3] = in words; cited from earlier work

Compound: C[C@@H](O)[C@@H]1NC(=O)[C@H](CCCCN)NC(=O)[C@@H](Cc2c[nH]c3ccccc23)NC(=O)[C@H](Cc2ccccc2)NC(=O)[C@@H](NC(=O)[C@H](N)Cc2ccccc2)CSSC[C@@H](C(=O)NC(CO)CO)NC1=O [Ser(ol)] (H-[dF]CF[dW]KTC-{NHCH(CH2OH)2}; disulfide 2-7)
- Relative potency (%) of growth hormone inhibition in vivo (growth hormone): 2800%

Compound: CSCC[C@H](NC=O)C(=O)N[C@@H](CC(C)C)C(=O)N[C@@H](Cc1ccccc1)C(=O)NCCCCCCNC(=O)c1ccc(NN)nc1 [HP3, fMLFNH(CH2)6 NH--HYNIC]
- in vitro receptor binding affinity (receptor): marginally better in vitro receptor binding affinity than HP2

Compound: I-SS14: 123I labelled Somatostatin-14
- somatostatin (SS) receptor binding in adrenals and pancreas (somatostatin receptors; 2 min, 1 and 4 hours p.i., in words, listed as 123 I-SS14): can be detected in the adrenal glands and pancreatic tissue; also recorded: marked SS-like binding of ^123 I-SS14 at 2 minutes post-injection (p.i.), but this activity was not retained at 1 and 4 hours p.i
- Adrenal % Injected dose (somatostatin receptors; 2 min pi): 0.19 % Injected dose
- Adrenal Relative concentration (somatostatin receptors; 2 min pi): 7.6
- Pancreas % Injected dose (somatostatin receptors; 2 min pi): 2.3 % Injected dose
- Pancreas Relative concentration (somatostatin receptors; 2 min pi): 4.5
- Adrenal % Injected dose (somatostatin receptors; 1 hr pi): 0.01 % Injected dose
- Adrenal Relative concentration (somatostatin receptors; 1 hr pi): 0.4
- Pancreas % Injected dose (somatostatin receptors; 1 hr pi): 0.3 % Injected dose
- Pancreas Relative concentration (somatostatin receptors; 1 hr pi): 0.6
- Adrenal % Injected dose (somatostatin receptors; 4 hr pi): 0.01 % Injected dose
- Adrenal Relative concentration (somatostatin receptors; 4 hr pi): 0.3
- Pancreas % Injected dose (somatostatin receptors; 4 hr pi): 0.2 % Injected dose
- Pancreas Relative concentration (somatostatin receptors; 4 hr pi): 0.4
- Blood % Injected dose ([1]; 2 min pi): 16.2 % Injected dose
- Gut % Injected dose ([1]; 2 min pi): 9.9 % Injected dose
- Kidney, Bladder & Urine % Injected dose ([1]; 2 min pi): 3.4 % Injected dose
- Liver % Injected dose ([1]; 2 min pi): 7.2 % Injected dose
- Thyroid % Injected dose ([1]; 2 min pi): 0.11 % Injected dose
- Blood % Injected dose ([1]; 1 hr pi): 5.5 % Injected dose
- Gut % Injected dose ([1]; 1 hr pi): 19.9 % Injected dose
- Kidney, Bladder & Urine % Injected dose ([1]; 1 hr pi): 9.9 % Injected dose
- Liver % Injected dose ([1]; 1 hr pi): 2.2 % Injected dose
- Thyroid % Injected dose ([1]; 1 hr pi): 1.10 % Injected dose
- Blood % Injected dose ([1]; 4 hr pi): 6.1 % Injected dose
- Gut % Injected dose ([1]; 4 hr pi): 12.1 % Injected dose
- Kidney, Bladder & Urine % Injected dose ([1]; 4 hr pi): 17.9 % Injected dose
- Liver % Injected dose ([1]; 4 hr pi): 2.4 % Injected dose
- Thyroid % Injected dose ([1]; 4 hr pi): 2.00 % Injected dose

Compound: C[C@@H](O)[C@@H]1NC(=O)[C@H](CCCCN)NC(=O)[C@@H](Cc2c[nH]c3ccccc23)NC(=O)[C@H](Cc2ccccc2)NC(=O)[C@@H](NC(=O)[C@H](N)Cc2ccccc2)CSSC[C@@H](C(=O)N[C@H](CO)[C@@H](C)O)NC1=O [Thr(ol)]
- Relative potency (%) of growth hormone inhibition in vivo (growth hormone): 7000%

Compound: somatostatin
- metabolic stability in rat kidney homogenate [2]: rapidly metabolised
- susceptibility to metabolism by carboxypeptidases (carboxypeptidases): particularly susceptible to metabolism by carboxypeptidases

Compound: C[C@H](O)[C@@H](NC(=O)[C@@H]1CSSC[C@H](NC(=O)[C@H](N)Cc2ccccc2)C(=O)N[C@@H](Cc2ccccc2)C(=O)N[C@H](Cc2c[nH]c3ccccc23)C(=O)N[C@@H](CCCCN)C(=O)N[C@@H]([C@@H](C)O)C(=O)N1)C(N)=O [D-Thr(NH2)]
- Relative potency (%) of growth hormone inhibition in vivo (growth hormone): 1160%

Compound: C[C@@H](O)[C@@H]1NC(=O)[C@H](CCCCN)NC(=O)[C@@H](Cc2c[nH]c3ccccc23)NC(=O)[C@H](Cc2ccccc2)NC(=O)[C@@H](NC(=O)[C@H](N)Cc2ccccc2)CSSC[C@@H](C(=O)N[C@H](CO)[C@@H](C)O)NC1=O [Octreotide]
- biological half-life [3]: much longer biological half-life than natural somatostatin

Compound: C[C@H](O)[C@H](CO)NC(=O)[C@@H]1CSSC[C@H](NC(=O)[C@H](N)Cc2ccccc2)C(=O)N[C@@H](Cc2ccccc2)C(=O)N[C@H](Cc2c[nH]c3ccccc23)C(=O)N[C@@H](CCCCN)C(=O)N[C@@H]([C@@H](C)O)C(=O)N1 [D-Thr(ol)]
- Relative potency (%) of growth hormone inhibition in vivo (growth hormone): 1100%

Compound: C[C@@H](O)[C@@H]1NC(=O)[C@H](CCCCN)NC(=O)[C@@H](Cc2c[nH]c3ccccc23)NC(=O)[C@H](Cc2ccccc2)NC(=O)[C@@H](NC(=O)[C@H](N)Cc2ccccc2)CSSC[C@@H](C(=O)N[C@H](CO)Cc2ccccc2)NC1=O [Phe(ol)] (H-[dF]CF[dW]KTC[Phe(ol)]; disulfide 2-7)
- Relative potency (%) of growth hormone inhibition in vivo (growth hormone): 650%
